test system: Escherichia coli TOP10; assay: shrunken log2 fold change of peptide-encoding DNA abundance (4.5 h post-induction vs induction); higher = less antimicrobial activity (less host growth inhibition); details: time post-induction: 4.5 h; library: site-saturation at positions 5, 18, 19, 20
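Also: peptides expressed intracellularly from a pBAD plasmid library in pooled LB shake-flask culture, induced with 0.3% L-arabinose, DNA abundance read by NGS, three biological replicates, DESeq2 with apeglm shrinkage.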

| Sequence | shrunken log2 fold change |
| --- | --- |
| RRIRWRPPRLPRPRPRPNTTPRP | -0.418 |
| RRIRTRPPRLPRPRPRPLEDPRP | -0.163 |
| RRIRDRPPRLPRPRPRPLQHPRP | 0.0148 |
| RRIRERPPRLPRPRPRPYDSPRP | -0.0594 |
| RRIRTRPPRLPRPRPRPNVIPRP | -0.372 |
| RRIRFRPPRLPRPRPRPNCHPRP | -0.313 |
| RRIRNRPPRLPRPRPRPALPPRP | 0.248 |
| RRIRHRPPRLPRPRPRPLKWPRP | -0.0708 |
| RRIRCRPPRLPRPRPRPMRLPRP | 0.0914 |
| RRIRCRPPRLPRPRPRPTMNPRP | -0.421 |
| RRIRNRPPRLPRPRPRPGFDPRP | 0.189 |
| RRIRQRPPRLPRPRPRPPEKPRP | 0.917 |
| RRIRPRPPRLPRPRPRPCILPRP | -1.04 |
| RRIRHRPPRLPRPRPRPDQPPRP | 0.183 |
| RRIRMRPPRLPRPRPRPMTLPRP | 0.113 |
| RRIRIRPPRLPRPRPRPLNYPRP | -0.384 |
| RRIRRRPPRLPRPRPRPAYQPRP | -0.289 |
| RRIRVRPPRLPRPRPRPMHIPRP | -0.231 |
| RRIRERPPRLPRPRPRPGMNPRP | -0.308 |
| RRIRDRPPRLPRPRPRPWHRPRP | -0.017 |
| RRIRARPPRLPRPRPRPYPCPRP | -0.417 |
| RRIRQRPPRLPRPRPRPNCNPRP | -0.882 |
| RRIRRRPPRLPRPRPRPMNNPRP | -0.137 |
| RRIRFRPPRLPRPRPRPLKWPRP | -0.13 |
| RRIRTRPPRLPRPRPRPSLKPRP | -0.359 |

| Sequence | shrunken log2 fold change |
| --- | --- |
| RRIRNRPPRLPRPRPRPHHAPRP | -0.0601 |
| RRIRKRPPRLPRPRPRPPYFPRP | -0.101 |
| RRIRGRPPRLPRPRPRPENFPRP | 0.0598 |
| RRIRVRPPRLPRPRPRPHIPPRP | -0.602 |
| RRIRYRPPRLPRPRPRPRLKPRP | 3.7 |
| RRIRKRPPRLPRPRPRPKNCPRP | 0.0646 |
| RRIRQRPPRLPRPRPRPDLPPRP | -0.134 |
| RRIRGRPPRLPRPRPRPLVFPRP | 0.455 |
| RRIRFRPPRLPRPRPRPKYSPRP | -0.14 |
| RRIRHRPPRLPRPRPRPWITPRP | -0.118 |
| RRIRCRPPRLPRPRPRPHGPPRP | 0.0798 |
| RRIRIRPPRLPRPRPRPLNMPRP | -0.528 |
| RRIRIRPPRLPRPRPRPYMKPRP | -0.495 |
| RRIRRRPPRLPRPRPRPADMPRP | -0.0139 |
| RRIRWRPPRLPRPRPRPYSPPRP | -1.1 |
| RRIRMRPPRLPRPRPRPGCCPRP | 1.36 |
| RRIRPRPPRLPRPRPRPCPLPRP | -0.208 |
| RRIRERPPRLPRPRPRPGPSPRP | -0.109 |
| RRIRFRPPRLPRPRPRPNRYPRP | -0.319 |
| RRIRCRPPRLPRPRPRPNCVPRP | -0.00701 |
| RRIRQRPPRLPRPRPRPIMNPRP | -1.23 |
| RRIRFRPPRLPRPRPRPDRMPRP | -0.00758 |
| RRIRGRPPRLPRPRPRPGAQPRP | 1.19 |
| RRIRPRPPRLPRPRPRPAREPRP | 0.68 |
| RRIRQRPPRLPRPRPRPKLIPRP | -0.0954 |

| Sequence | shrunken log2 fold change |
| --- | --- |
| RRIRFRPPRLPRPRPRPKNMPRP | -0.724 |
| RRIRRRPPRLPRPRPRPQGKPRP | 0.0379 |
| RRIRWRPPRLPRPRPRPPFGPRP | 0.274 |
| RRIRPRPPRLPRPRPRPKHLPRP | -0.355 |
| RRIRWRPPRLPRPRPRPNRVPRP | -0.0395 |
| RRIRERPPRLPRPRPRPDPVPRP | 0.181 |
| RRIRSRPPRLPRPRPRPTEDPRP | 0.14 |
| RRIRARPPRLPRPRPRPCHTPRP | 0.0762 |
| RRIRMRPPRLPRPRPRPWIYPRP | -0.169 |
| RRIRSRPPRLPRPRPRPRYYPRP | -0.554 |
| RRIRKRPPRLPRPRPRPNGYPRP | 0.0664 |
| RRIRWRPPRLPRPRPRPPPKPRP | 0.945 |
| RRIRQRPPRLPRPRPRPNGPPRP | -0.011 |
| RRIRKRPPRLPRPRPRPDMIPRP | 0.013 |
| RRIRWRPPRLPRPRPRPMQRPRP | 0.667 |
| RRIRYRPPRLPRPRPRPTKWPRP | -0.489 |
| RRIRLRPPRLPRPRPRPMVQPRP | -0.147 |
| RRIRWRPPRLPRPRPRPVMIPRP | 0.0436 |
| RRIRDRPPRLPRPRPRPLEIPRP | 0.287 |
| RRIRVRPPRLPRPRPRPGDNPRP | 0.174 |
| RRIRDRPPRLPRPRPRPIPAPRP | 0.0318 |
| RRIRSRPPRLPRPRPRPFSCPRP | -0.0153 |
| RRIRTRPPRLPRPRPRPDMTPRP | -0.0206 |
| RRIRYRPPRLPRPRPRPHYWPRP | -0.582 |
| RRIRDRPPRLPRPRPRPEYDPRP | 0.00968 |

| Sequence | shrunken log2 fold change |
| --- | --- |
| RRIRYRPPRLPRPRPRPVGEPRP | 0.207 |
| RRIRKRPPRLPRPRPRPHRCPRP | 0.0753 |
| RRIRFRPPRLPRPRPRPSCEPRP | -0.619 |
| RRIRHRPPRLPRPRPRPELEPRP | -0.0141 |
| RRIRSRPPRLPRPRPRPKLNPRP | -0.103 |
| RRIRTRPPRLPRPRPRPCWDPRP | -0.192 |
| RRIRPRPPRLPRPRPRPSGNPRP | -0.273 |
| RRIRFRPPRLPRPRPRPRMTPRP | 0.128 |
| RRIRYRPPRLPRPRPRPMMYPRP | -0.00674 |
| RRIRDRPPRLPRPRPRPASFPRP | 0.136 |
| RRIRFRPPRLPRPRPRPNQPPRP | -0.136 |
| RRIRRRPPRLPRPRPRPRTKPRP | 0.0753 |
| RRIRIRPPRLPRPRPRPCKAPRP | -0.181 |
| RRIRCRPPRLPRPRPRPDQLPRP | 0.101 |
| RRIRNRPPRLPRPRPRPDCNPRP | -0.0899 |
| RRIRIRPPRLPRPRPRPYWMPRP | -0.379 |
| RRIRVRPPRLPRPRPRPNELPRP | -0.00739 |
| RRIRGRPPRLPRPRPRPASVPRP | 0.454 |
| RRIRMRPPRLPRPRPRPIWKPRP | 0.00523 |
| RRIRWRPPRLPRPRPRPYHRPRP | -0.201 |
| RRIRPRPPRLPRPRPRPSKKPRP | -0.108 |
| RRIRRRPPRLPRPRPRPKMYPRP | -0.258 |
| RRIRGRPPRLPRPRPRPFQFPRP | 0.00963 |
| RRIRIRPPRLPRPRPRPMDAPRP | 0.0153 |
| RRIRMRPPRLPRPRPRPLWHPRP | 0.336 |

| Sequence | shrunken log2 fold change |
| --- | --- |
| RRIRFRPPRLPRPRPRPTWEPRP | -0.0897 |
| RRIRLRPPRLPRPRPRPQWFPRP | -0.0962 |
| RRIRYRPPRLPRPRPRPNWLPRP | -0.226 |
| RRIRRRPPRLPRPRPRPMTYPRP | -0.0343 |
| RRIRQRPPRLPRPRPRPARFPRP | 0.0469 |
| RRIRRRPPRLPRPRPRPMMKPRP | 0.324 |
| RRIRERPPRLPRPRPRPPCEPRP | -0.075 |
| RRIRDRPPRLPRPRPRPGYGPRP | -0.0481 |
| RRIRDRPPRLPRPRPRPGILPRP | -0.197 |
| RRIRDRPPRLPRPRPRPPDHPRP | 0.527 |
| RRIRCRPPRLPRPRPRPDYRPRP | -0.0343 |
| RRIRDRPPRLPRPRPRPEPYPRP | 0.118 |
| RRIRARPPRLPRPRPRPTADPRP | 0.83 |
| RRIRVRPPRLPRPRPRPMGMPRP | 0.0727 |
| RRIRYRPPRLPRPRPRPASQPRP | -0.08 |
| RRIRKRPPRLPRPRPRPMTRPRP | 0.872 |
| RRIRSRPPRLPRPRPRPESKPRP | 0.385 |
| RRIRKRPPRLPRPRPRPHVFPRP | 0.015 |
| RRIRPRPPRLPRPRPRPNATPRP | 0.323 |
| RRIRTRPPRLPRPRPRPTEVPRP | -0.199 |
| RRIRARPPRLPRPRPRPMIHPRP | -0.119 |
| RRIRKRPPRLPRPRPRPPYVPRP | 0.0388 |
| RRIRHRPPRLPRPRPRPRIFPRP | -0.121 |
| RRIRCRPPRLPRPRPRPLEIPRP | -0.164 |
| RRIRWRPPRLPRPRPRPKYPPRP | -0.582 |

| Sequence | shrunken log2 fold change |
| --- | --- |
| RRIRHRPPRLPRPRPRPAYYPRP | -0.624 |
| RRIRERPPRLPRPRPRPAIWPRP | 0.129 |
| RRIRWRPPRLPRPRPRPHACPRP | 0.171 |
| RRIRRRPPRLPRPRPRPNEFPRP | -0.0247 |
| RRIRERPPRLPRPRPRPRYCPRP | -0.516 |
| RRIRLRPPRLPRPRPRPTVRPRP | -0.107 |
| RRIRLRPPRLPRPRPRPKSSPRP | 0.0397 |
| RRIRVRPPRLPRPRPRPKFGPRP | 0.017 |
| RRIRARPPRLPRPRPRPRMDPRP | 0.356 |
| RRIRDRPPRLPRPRPRPPYNPRP | -0.395 |
| RRIRDRPPRLPRPRPRPLGCPRP | 0.206 |
| RRIRWRPPRLPRPRPRPYHQPRP | -0.0735 |
| RRIRLRPPRLPRPRPRPMLDPRP | 0.014 |
| RRIRYRPPRLPRPRPRPQWKPRP | -0.01 |
| RRIRGRPPRLPRPRPRPHIRPRP | 0.0682 |
| RRIRPRPPRLPRPRPRPRGSPRP | 0.285 |
| RRIRCRPPRLPRPRPRPWKHPRP | -0.264 |
| RRIRMRPPRLPRPRPRPEQGPRP | 0.493 |
| RRIRPRPPRLPRPRPRPCIEPRP | -0.291 |
| RRIRYRPPRLPRPRPRPDVQPRP | -0.0317 |
| RRIRERPPRLPRPRPRPPEMPRP | 0.0477 |
| RRIRIRPPRLPRPRPRPDTWPRP | -0.239 |
| RRIRFRPPRLPRPRPRPRLSPRP | -0.194 |
| RRIRSRPPRLPRPRPRPWTDPRP | -0.12 |
| RRIRIRPPRLPRPRPRPLAWPRP | 0.0118 |
